Assay [1] has as its target T1, human CD40 expressed on cells (human, UniProt P25942 21-277). The assay can be described thus: cell-based or functional assay.
The target in assay [2] is T2, human Fibroblast Activation Protein (FAP) expressed on cells (human, UniProt Q12884 1-760).
T2 construct: Cell-surface human FAP on transfected HEK or NIH/3T3 cells; also called huFAP; human FAP-transfected HEK cells
The assay can be described thus: flow cytometry, huFAP-transfected HEK cells.
Description: The binding of anti-FAP antibodies with a human IgG1 P329G LALA Fc to human FAP was determined by flow cytometry using human FAP-transfected HEK cells. Briefly, the target cells were harvested with Cell Dissociation buffer, washed with FACS Buffer (PBS+2% FCS+5 mM EDTA+0.25% sodium acide) and seeded into 96-U bottom plates (1×10^5 cells/well). Unlabeled primary antibodies were added to the cells (final concentrations 10 μg/ml to 0.64 ng/ml; 1:5 dilutions) and incubated for 30 min at 4° C. After washing, cells were incubated with a PE-conjugated AffiPure F(ab)₂ Fragment Goat anti-human IgG, Fc□ specific (Jackson Immunoresearch) for 30 min at 4° C. in the dark. Afterwards, cells were washed, fixed and measured using a BD FACS LSR Fortessa™.

In assay [3] the target is T3, biotinylated recombinant human FAP (human, UniProt Q12884 26-760, biotinylated).
T3 construct: also called biotinylated human FAP
Briefly: SPR (Biacore).

In assay [4] the target is T4, His-tagged human FAP ectodomain (human, UniProt Q12884 27-760).
T4 construct: also called hu FAP ectodomain+poly-lys-tag+his6-tag; His-tagged FAP antigen
Briefly: SPR, His-tagged human FAP ectodomain as ligand.

For assay [5], the target named is T1, human CD40 expressed on cells. The assay can be described thus: flow cytometry, primary human B cells.
Description: Plates were centrifuged 5 minutes at 1700 rpm and supernatants were flicked off. […] All samples were resuspended in 50 μL/well of 4° C. cold FACS buffer containing the bispecific antigen binding molecules (primary antibody) or the isotype control antibody DP47 at the indicated range of concentrations (in duplicates) and incubated for 120 minutes at 4° C. Afterwards the cells were washed three times with 200 μL 4° C. cold FACS buffer. […] Data analysis was performed using the FlowJo version 10 software (FlowJo LLC).

Results on seven molecules are retold here after US20250320305A1 (Hoffmann-La Roche, published 2025).

Residue numbers refer to the chain shown, from its start.

B1: P1AA9663, CD40 (huCD40) x FAP (28H1) (2+2) C-terminal crossfab fusion (bispecific antibody, human IgG1, kappa, L234A L235A)
light 1: EVQLLESGGGLVQPGGSLRLSCAASGFTFSSHAMSWVRQAPGKGLEWVSAIWASGEQYYADSVKGRFTISRDNSKNTLYLQMNSLRAEDTAVYYCAKGWLGNFDYWGQGTLVTVSSASVAAPSVFIFPPSDEQLKSGTASVVCLLNNFYPREAKVQWKVDNALQSGNSQESVTEQDSKDSTYSLSSTLTLSKADYEKHKVYACEVTHQGLSSPVTKSFNRGEC
light 2: DIQMTQSPSSLSASVGDRVTITCRSSQSLVHSNGNTFLHWYQQKPGKAPKLLIYTVSNRFSGVPSRFSGSGSGTDFTLTISSLQPEDFATYFCSQTTHVPWTFGQGTKVEIKRTVAAPSVFIFPPSDRKLKSGTASVVCLLNNFYPREAKVQWKVDNALQSGNSQESVTEQDSKDSTYSLSSTLTLSKADYEKHKVYACEVTHQGLSSPVTKSFNRGEC
heavy: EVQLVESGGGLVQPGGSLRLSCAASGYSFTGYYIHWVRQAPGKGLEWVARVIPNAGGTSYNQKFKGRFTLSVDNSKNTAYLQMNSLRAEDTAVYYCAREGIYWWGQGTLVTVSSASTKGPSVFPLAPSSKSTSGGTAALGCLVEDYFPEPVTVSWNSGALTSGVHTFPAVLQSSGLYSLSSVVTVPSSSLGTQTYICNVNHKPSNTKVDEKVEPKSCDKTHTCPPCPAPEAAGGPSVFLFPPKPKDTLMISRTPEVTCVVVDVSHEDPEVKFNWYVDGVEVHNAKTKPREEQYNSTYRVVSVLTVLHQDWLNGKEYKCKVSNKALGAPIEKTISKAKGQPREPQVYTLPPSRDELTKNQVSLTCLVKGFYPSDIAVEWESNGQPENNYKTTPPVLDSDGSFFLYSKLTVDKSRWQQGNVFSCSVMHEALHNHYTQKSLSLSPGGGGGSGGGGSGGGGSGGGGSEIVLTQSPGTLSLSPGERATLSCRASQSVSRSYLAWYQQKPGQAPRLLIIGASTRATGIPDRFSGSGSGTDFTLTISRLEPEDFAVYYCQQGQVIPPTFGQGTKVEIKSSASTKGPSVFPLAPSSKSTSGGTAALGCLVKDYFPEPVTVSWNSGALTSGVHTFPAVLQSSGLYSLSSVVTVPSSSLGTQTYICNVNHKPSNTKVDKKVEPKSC
In the case of B1, the “EC50, two cell line bridging assay (SEAP of HEK-Blue CD40L reporter cells with FAP-expressing WM-266-4 cells)” value (“EC50, two cell line bridging assay” below) in assay [1] is 0.0132 nM.

B2: anti-FAP antibody 4B9 (antibody, V domains shown)
VH: EVQLLESGGGLVQPGGSLRLSCAASGFTFSSYAMSWVRQAPGKGLEWVSAIIGSGASTYYADSVKGRFTISRDNSKNTLYLQMNSLRAEDTAVYYCAKGWFGGFNYWGQGTLVTVSS
VL: EIVLTQSPGTLSLSPGERATLSCRASQSVTSSYLAWYQQKPGQAPRLLINVGSRRATGIPDRFSGSGSGTDFTLTISRLEPEDFAVYYCQQGIMLPPTFGQGTKVEIK
Regarding B2, in assay [2], a half-maximal effect (EC50) was put at 0.089 µg/mL.

B3: P1AE1702_Fab, humanized anti-FAP clone 212 variant with VL2G2a (Fab, V domains shown)
VH: EVQLLESGGGLVQPGGSLRLSCAASGYTLTDYNMDWVRQAPGKGLEWVGDIYPNTGGTIYNQKFKGRFTISIDKSKNTAYLQMNSLRAEDTAVYYCTRFRGIHYAMDYWGQGTTVTVSS
VL: DIQMTQSPSSLSASVGDRVTITCRASESVDNYGLSFINWFQQKPGQPPKLLIYGTSNRGSGVPSRFSGSGSGTDFTLTISSLQPEDFAMYFCQQSNEVPYTFGGGTKVEIK
notes: Fab
For the molecule B3, in assay [3], the Kd is 0.213 nM, the “T ½” value was determined as 1.8 h, the koff is 0.000107 s⁻¹ and the kon was determined as 502000 M⁻¹ s⁻¹.

B4: P1AF0873, CD40 (P1AE0817) x FAP (P1AE1689) (1+1) C-terminal crossfab fusion (bispecific antibody, human IgG1, kappa, L234A L235A)
light 1: QVQLVQSGAEVKKPGASVKVSCKASGYTLTDYNMDWVRQAPGQGLEWIGDIYPNTGGTIYNQKFKGRVTMTIDTSTSTVYMELSSLRSEDTAVYYCTRFRGIHYAMDYWGQGTTVTVSSASVAAPSVFIFPPSDEQLKSGTASVVCLLNNFYPREAKVQWKVDNALQSGNSQESVTEQDSKDSTYSLSSTLTLSKADYEKHKVYACEVTHQGLSSPVTKSFNRGEC
light 2: DIVMTQTPLSLSVTPGQPASISCRSSQSLVHSNGNTFLHWYLQKPGQSPQLLIYTVSNRFSGVPDRFSGSGSGTDFTLKISRVEAEDVGVYFCSQTTHVPWTFGGGTKVEIKRTVAAPSVFIFPPSDRKLKSGTASVVCLLNNFYPREAKVQWKVDNALQSGNSQESVTEQDSKDSTYSLSSTLTLSKADYEKHKVYACEVTHQGLSSPVTKSFNRGEC
heavy: not shown
chain: not shown
Take B4: the “EC50, two cell line bridging assay” value in assay [1] was found to be 0.0265 nM.

B5: P1AE2734, CD40 (P1AE0817) x FAP (P1AE1689) (2+1) with different C-terminal crossfab fusion (bispecific antibody, human IgG1, kappa, L234A L235A)
light 1: EIVLTQSPATLSLSPGERATLSCRASESVDNYGLSFINWFQQKPGQAPRLLIYGTSNRGSGIPARFSGSGSGTDFTLTISSLEPEDFAVYFCQQSNEVPYTFGGGTKVEIKSSASTKGPSVFPLAPSSKSTSGGTAALGCLVKDYFPEPVTVSWNSGALTSGVHTFPAVLQSSGLYSLSSVVTVPSSSLGTQTYICNVNHKPSNTKVDKKVEPKSC
light 2: B4 light 2 with R128E, K129Q
heavy 1: not shown
heavy 2: QVQLVQSGAEVKKPGASVKVSCKASGYSFTGYYIHWVRQAPGQSLEWMGRVIPNAGGTSYNQKFKGRVTLTVDKSISTAYMELSRLRSDDTAVYYCAREGIYWWGQGTTVTVSSASTKGPSVFPLAPSSKSTSGGTAALGCLVKDYFPEPVTVSWNSGALTSGVHTFPAVLQSSGLYSLSSVVTVPSSSLGTQTYICNVNHKPSNTKVDKKVEPKSCDKTHTCPPCPAPEAAGGPSVFLFPPKPKDTLMISRTPEVTCVVVDVSHEDPEVKFNWYVDGVEVHNAKTKPREEQYNSTYRVVSVLTVLHQDWLNGKEYKCKVSNKALGAPIEKTISKAKGQPREPQVCTLPPSRDELTKNQVSLSCAVKGFYPSDIAVEWESNGQPENNYKTTPPVLDSDGSFFLVSKLTVDKSRWQQGNVFSCSVMHEALHNHYTQKSLSLSPG
notes: bivalent for CD40, monovalent for FAP; also called VH-Ckappa fused to Fc
B5: in assay [4], the Kd was 0.21 nM, the koff came out at 5.2e-05 s⁻¹ and the kon is 250000 M⁻¹ s⁻¹.

B6: P1AE2487, CD40 (P1AE0817) x FAP (4B9) (2+1) C-terminal crossfab fusion (bispecific antibody, human IgG1, kappa, L234A L235A)
light 1: EIVLTQSPGTLSLSPGERATLSCRASQSVTSSYLAWYQQKPGQAPRLLINVGSRRATGIPDRFSGSGSGTDFTLTISRLEPEDFAVYYCQQGIMLPPTFGQGTKVEIKSSASTKGPSVFPLAPSSKSTSGGTAALGCLVKDYFPEPVTVSWNSGALTSGVHTFPAVLQSSGLYSLSSVVTVPSSSLGTQTYICNVNHKPSNTKVDKKVEPKSC
light 2: B4 light 2 with R128E, K129Q
heavy 1: not shown
heavy 2: B5 heavy 2
notes: bivalent for CD40, monovalent for FAP; also called CD40 x FAP (4B9) 2+1 crossfab
In turn, B6 yielded an EC50 in assay [5] of 0.086 nM.

B7: P1AE2302, CD40 (P1AE0817) x FAP (28H1) (2+1) C-terminal crossfab fusion (bispecific antibody, human IgG1, kappa, L234A L235A)
light 1: B1 light 1
light 2: B4 light 2
heavy 1: not shown
heavy 2: B5 heavy 2 with K144E, K210E
Consider B7, for which the “EC50, two cell line bridging assay” value in assay [1] amounted to 0.0025 nM.
